In article PMC4642857:

Target: microtubule polymerized from porcine brain tubulin, stabilized with paclitaxel (porcine)
Assay: co-sedimentation

## purified γ stalk–LC1 complex (from UniProt Q9XHH2 1-198)
  Bmax/Kd: 0.053
  Kd: 19 µM
